From patent publication US20210063414A1, “METHODS FOR PREVENTING AND/OR TREATING BONE LOSS CONDITIONS BY MODULATING IRISIN” (Dana-Farber Cancer Institute, Inc., priority 2018, published 2021)

Experiments:
Experiment in all cases: Crosslinking/co-immunoprecipitation/mass spectrometry (TMT quantitative proteomics) to identify irisin receptors
Type in all cases: binding
[1] = biological target: T1, MLO-Y4 cell surface proteins (Mus musculus, UniProt C0HKE1); conditions: co-precipitated protein Hist1h2ab (H2A1_MOUSE)
T1 construct: endogenous in cells; host or cells: MLO-Y4
Procedure, shortened: (§1)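 Mouse MLO-Y4 cells were switched to serum-free FreeStyle medium for 4 h, chilled, then exposed to 10 nM His-tagged irisin (or adipsin as control) for 20 min. Cells were crosslinked with 1.5 mM DTSSP (30 min, ice), and bound proteins were pulled down on Ni-NTA and eluted with 250 mM imidazole. Eluates were separated by SDS-PAGE, trypsin-digested in gel, TMT 6-plex labelled and quantified by MS3-based LC-MS/MS on an Orbitrap Fusion Lumos.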

[2] = biological target: T2, MLO-Y4 cell surface proteins (Mus musculus, UniProt Q921G7); conditions: co-precipitated protein Etfdh (ETFD_MOUSE)
T2 construct: endogenous in cells; host or cells: MLO-Y4
T2 sequence (Q921G7 33-616): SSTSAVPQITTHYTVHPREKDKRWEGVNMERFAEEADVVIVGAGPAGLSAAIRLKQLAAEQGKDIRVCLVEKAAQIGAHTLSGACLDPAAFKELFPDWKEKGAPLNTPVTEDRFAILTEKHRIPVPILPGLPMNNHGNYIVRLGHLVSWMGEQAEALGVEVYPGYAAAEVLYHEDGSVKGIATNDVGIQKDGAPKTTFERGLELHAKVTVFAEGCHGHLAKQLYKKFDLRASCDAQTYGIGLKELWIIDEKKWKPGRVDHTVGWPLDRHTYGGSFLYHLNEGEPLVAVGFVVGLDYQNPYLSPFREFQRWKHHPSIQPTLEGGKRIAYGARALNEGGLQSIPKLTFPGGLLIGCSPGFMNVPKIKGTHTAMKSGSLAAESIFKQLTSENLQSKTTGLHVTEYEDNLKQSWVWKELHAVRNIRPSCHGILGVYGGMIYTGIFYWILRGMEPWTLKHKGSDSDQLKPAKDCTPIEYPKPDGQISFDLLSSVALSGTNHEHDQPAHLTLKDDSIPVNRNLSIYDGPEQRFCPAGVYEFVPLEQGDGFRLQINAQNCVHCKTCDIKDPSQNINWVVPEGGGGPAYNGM
Procedure, shortened: as §1

[3] = biological target: T3, MLO-Y4 cell surface proteins (Mus musculus, UniProt P97360); conditions: co-precipitated protein Etv6 (ETV6_MOUSE)
T3 construct: endogenous in cells; host or cells: MLO-Y4
T3 sequence (P97360 1-485): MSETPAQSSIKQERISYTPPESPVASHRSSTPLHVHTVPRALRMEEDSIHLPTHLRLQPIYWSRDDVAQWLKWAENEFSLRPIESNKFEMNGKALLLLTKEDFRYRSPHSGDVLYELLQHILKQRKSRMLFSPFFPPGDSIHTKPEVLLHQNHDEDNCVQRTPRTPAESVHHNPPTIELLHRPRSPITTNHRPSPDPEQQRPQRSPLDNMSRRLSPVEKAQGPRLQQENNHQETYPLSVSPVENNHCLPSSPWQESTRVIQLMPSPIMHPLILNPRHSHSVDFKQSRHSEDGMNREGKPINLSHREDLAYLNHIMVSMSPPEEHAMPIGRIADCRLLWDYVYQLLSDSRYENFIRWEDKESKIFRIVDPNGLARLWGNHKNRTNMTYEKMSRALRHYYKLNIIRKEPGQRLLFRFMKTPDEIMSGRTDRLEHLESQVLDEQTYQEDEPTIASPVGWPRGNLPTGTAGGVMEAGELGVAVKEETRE
Procedure, shortened: as §1

[4] = biological target: T4, MLO-Y4 cell surface proteins (Mus musculus, UniProt E9Q0C6); conditions: co-precipitated protein Gm14569 (E9Q0C6_MOUSE)
T4 construct: endogenous in cells; host or cells: MLO-Y4
T4 sequence (E9Q0C6 whole entry): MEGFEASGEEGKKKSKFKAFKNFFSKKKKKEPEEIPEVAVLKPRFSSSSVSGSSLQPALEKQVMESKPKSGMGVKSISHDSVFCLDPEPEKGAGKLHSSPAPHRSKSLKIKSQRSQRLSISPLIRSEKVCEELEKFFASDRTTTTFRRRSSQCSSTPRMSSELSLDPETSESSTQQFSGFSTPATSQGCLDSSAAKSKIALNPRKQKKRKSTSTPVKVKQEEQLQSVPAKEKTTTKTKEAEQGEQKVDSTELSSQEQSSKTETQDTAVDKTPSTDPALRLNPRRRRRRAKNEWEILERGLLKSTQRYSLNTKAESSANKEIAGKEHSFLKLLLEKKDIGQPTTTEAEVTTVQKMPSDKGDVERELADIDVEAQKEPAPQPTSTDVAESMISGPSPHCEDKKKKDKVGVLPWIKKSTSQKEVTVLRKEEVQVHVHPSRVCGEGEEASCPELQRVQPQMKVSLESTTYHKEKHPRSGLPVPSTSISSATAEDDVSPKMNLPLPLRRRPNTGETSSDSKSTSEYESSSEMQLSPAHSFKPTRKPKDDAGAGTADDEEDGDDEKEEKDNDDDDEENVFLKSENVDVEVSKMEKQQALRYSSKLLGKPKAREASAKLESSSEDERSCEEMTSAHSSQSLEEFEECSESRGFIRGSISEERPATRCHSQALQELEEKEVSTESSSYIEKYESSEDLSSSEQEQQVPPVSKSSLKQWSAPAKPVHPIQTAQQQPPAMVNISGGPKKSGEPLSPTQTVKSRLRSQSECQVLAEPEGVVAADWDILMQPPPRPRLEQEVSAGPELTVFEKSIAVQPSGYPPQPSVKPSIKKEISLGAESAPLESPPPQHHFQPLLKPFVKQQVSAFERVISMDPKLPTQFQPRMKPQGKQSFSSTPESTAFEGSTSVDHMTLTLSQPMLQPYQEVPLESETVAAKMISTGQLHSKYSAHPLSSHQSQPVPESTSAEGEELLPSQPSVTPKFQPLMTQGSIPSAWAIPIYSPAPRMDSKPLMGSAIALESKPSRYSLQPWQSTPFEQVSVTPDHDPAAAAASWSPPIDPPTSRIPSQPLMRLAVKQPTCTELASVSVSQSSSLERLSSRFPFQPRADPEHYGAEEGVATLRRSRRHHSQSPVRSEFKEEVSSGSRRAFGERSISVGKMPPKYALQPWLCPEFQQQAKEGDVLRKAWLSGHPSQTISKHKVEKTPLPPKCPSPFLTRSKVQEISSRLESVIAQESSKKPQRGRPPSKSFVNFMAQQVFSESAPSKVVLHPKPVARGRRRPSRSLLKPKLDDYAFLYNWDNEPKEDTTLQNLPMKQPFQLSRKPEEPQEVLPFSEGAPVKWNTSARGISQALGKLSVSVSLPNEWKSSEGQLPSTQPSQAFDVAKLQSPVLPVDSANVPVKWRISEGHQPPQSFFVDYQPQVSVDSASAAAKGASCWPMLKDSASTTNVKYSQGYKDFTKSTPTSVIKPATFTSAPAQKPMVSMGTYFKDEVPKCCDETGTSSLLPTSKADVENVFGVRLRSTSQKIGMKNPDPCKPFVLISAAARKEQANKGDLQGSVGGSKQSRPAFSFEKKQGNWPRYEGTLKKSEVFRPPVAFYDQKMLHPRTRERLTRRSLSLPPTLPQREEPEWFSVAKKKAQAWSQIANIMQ
Procedure, shortened: as §1

B1: irisin: secreted cleaved form of FNDC5; recombinant human/mouse irisin with C-terminal his tag produced in HEK293 cells (protein)
chain: DSPSAPVNVTVRHLKANSAVVSWDVLEDEVVIGFAISQQKKDVRMLRFIQEVNTTTRSCALWDLEEDTEYIVHVQAISIQGQSPASEPVLFKTPREAEKMASKNKDEVTMKE
modifications: left off: small tags and cut ends
notes: secreted cleaved form of FNDC5; recombinant human/mouse irisin with C-terminal his tag produced in HEK293 cells
- TMT signal-to-noise ratio [1]: 119.978
- irisin/adipsin TMT signal-to-noise ratio [1]: 0.438
- TMT signal-to-noise ratio [2]: 30.6918
- irisin/adipsin TMT signal-to-noise ratio [2]: 0.532
- TMT signal-to-noise ratio [3]: 74.6472
- irisin/adipsin TMT signal-to-noise ratio [3]: 0.544
- TMT signal-to-noise ratio [4]: 8.647
- irisin/adipsin TMT signal-to-noise ratio [4]: 0.039
